# Experimental data: patent US7618943B2, “Fusion polypeptides, and use thereof in antivascular tumor therapy” (Oncoscience AG, priority 2003, dated 2009)
# Entries after “also recorded” stand apart in the source; their conditions may differ.
# Columns and labels:
# integrin αvβ3 = integrin αvβ3 (Homo sapiens, UniProt P05106+P06756); assay: ELISA binding to immobilized purified αvβ3; conditions: 0.1 μM protein, immobilized αvβ3
# Protocol: FIG. 4: Binding of tTF, tTF-RGD and tTF-NGR to integrin αvβ3. The binding of 0.1 μM tTF, tTF-RGD and tTF-NGR to immobilized αvβ3 was quantified with a polyclonal antibody against human TF (American Diagnostica) in an ELISA. The results are presented as median and interquartile range. The differences in binding between tTF-RGD and tTF or between tTF-NGR and tTF were statistically significant (p<0.001, Mann-Whitney test).
# human endothelial cells = assay: FACS binding of biotinylated proteins to endothelial cells in suspension; type: cell-based; conditions: 0.1 μM, 60 min at 4° C., streptavidin-phycoerythrin detection
# Protocol: FIG. 6: Binding of tTF and tTF-RGD to human endothelial cells. A: FACS analysis of endothelial cells incubated with 0.1 μM tTF (2) or with 0.1 μM tTF-RGD (3) for 60 min at 4° C. […] Curves 1 in A and B show the negative control.
# Next the specific binding of tTF-RGD to αvβ3 on endothelial cells was evaluated. For this, the differential binding of biotinylated tTF and tTF-RGD to endothelial cells in suspension was analysed by FACS (Fluorescence Activated Cell Sorting). The fact that all endothelial cells held in tissue culture are activated, i.e. express αvβ3 molecules, is utilized experimentally. This can be detected by various immunohistochemical methods. A cultivated endothelial cell thus corresponds, in relation to its expression pattern with respect to αvβ3 to a tumor endothelial cell. Accordingly, a cultivated endothelial cell can be used as a model system for the specific binding of substances to tumor endothelial cells and also permits predictions to be made concerning the expected toxicity.
# Streptavidin-phycoerythrin was used as the detection method. The measured fluorescence intensity for tTF-RGD was higher by a factor of 8 than for tTF (FIG. 6A). Furthermore, the binding of 0.1 μM tTF-RGD to endothelial cells was lowered competitively by 75% by the administration of 1 μM of the synthetic peptide GRGDSP (SEQ ID NO:33) (FIG. 6B). […]
# [1] = tested on: human malignant melanoma (M21); assay: M21 melanoma xenograft in athymic nude mice, intravenous therapy; type: in vivo
# Protocol: The vertical arrows indicate the times of injection with the respective substances.
# The vertical arrows indicate the times of the injections with the respective substances.
# (§1) The tTF-RGD and tTF-NGR fusion proteins were evaluated with respect to their effects and side-effects on xenografts of human tumors in athymic nude mice. The models established in our laboratory were used for this (33, 34). The cell lines CCL185 (human adenocarcinoma of the lung) and M-21 (human melanoma) were injected subcutaneously into the flank of male BALB/c nude mice (9-12 weeks old). On attaining a tumor volume of about 50-100 mm^3 (CCL185) or 400-600 mm^3 (M−21), the mice were assigned to four groups at random. Group 1 received only physiological saline solution (NaCl), group 2 tTF, group 3 tTF-RGD, and group 4 tTF-NGR (in each case 1.5-2.0 mg/kg body weight (BW) of the protein). The injections were made in the caudal vein of the animals at intervals of 1-3 days (depending on the growth rate of the particular cell line). Considerable therapeutic activity of the fusion proteins was observed.
# [2] = tested on: human fibrosarcoma (HT1080); assay: HT1080 fibrosarcoma xenograft in BALB/c nude mice, intravenous therapy; type: in vivo
# Source text: b: Inhibition of a human fibrosarcoma (HT1080) growing as a xenograft in athymic nude mice by intravenous therapy with tTF fusion proteins (tTF-RGD, n=12) compared with the growth of the tumors with infusion of physiological saline solution (NaCl, n=15) or tTF (n=14). The vertical arrows indicate the times of the injections with the respective substances.
# The antitumor activity of the tTF-RGD fusion protein was also investigated in BALB/c nude mice with fibrosarcomas (HT1080). These tumors grow rapidly and are well-vascularized. […] This effect lasted until the end of the experiment on day 7 (P=0.021 for tTF-RGD relative to the buffer control (physiological saline solution), P=0.005 for tTF-RGD relative to tTF).
# [3] = tested on: human lung carcinoma (CCL185); assay: CCL185 lung carcinoma xenograft in athymic nude mice, intravenous therapy; type: in vivo
# Source text: FIG. 7: Inhibition of a human lung carcinoma (CCL185) growing as a xenograft in athymic nude mice by intravenous therapy with tTF fusion proteins (tTF-RGD, n=6; tTF-NGR, n=6) compared with tumor growth with infusion of physiological saline solution (NaCl, n=8) or tTF (n=1). The vertical arrows indicate the times of injection with the respective substances.
# c: Inhibition of a human lung carcinoma (CCL185) growing as a xenograft in athymic nude mice by intravenous therapy with tTF fusion proteins (tTF-RGD, n=11) compared with the growth of the tumors in infusion of physiological saline solution (NaCl, n=10) or tTF (n=5). The vertical arrows indicate the times of the injections with the respective substances.
# as §1
# tumor blood vessels = assay: Macroscopy and histology of tumors after injection (thrombosis induction in tumor vessels, necrosis); type: in vivo, mice
# Protocol: FIG. 9: Macroscopic in vivo photograph of a tumor-bearing mouse 20 min after injection of the tTF-NGR fusion protein (A, left half of the picture) or NaCl (A, right half of the picture). […] After 60 min, the two mice were exsanguinated, the tumor was excised in toto and examined histologically. […] In contrast, the NaCl-treated tumor appears to be vital (C).
# FIG. 10: Histology of the melanoma tumor 1 hour after intravenous injection of tTF-RGD (A and B), tTF-NGR (C and D) and common salt (E and F) in the caudal vein of the tumor-bearing nude mouse. […] The photographs are of representative areas of the tumors (A, C and E: 200× magnification, B, D and F 400× magnification; HE staining (staining described e.g. in H. C. Burck, Histologische Technik-Leitfaden für die Herstellung mikroskopischer Präparate in Unterricht und Praxis, 5th edition, Thieme Verlag, Stuttgart 1982, pages 109 ff.).
# FIG. 35: Macrograph of a mouse bearing an M21 tumor at the end of treatment (day 7) with tTF-RGD fusion protein (A, C) or NaCl (B, D).
# To verify the mechanism of action of thrombosis induction in tumor vessels, the following experiment was carried out: the human melanoma cell line was injected into the flank of two male BALB/c nude mice. On attaining a tumor size of approx. 500 mm^3, 2.0 mg/kg BW tTF-NGR or NaCl was injected into the caudal vein. […] After 60 min the mice were exsanguinated, the tumor was excised in toto and investigated histologically. […] In contrast, the tumor treated with NaCl appears to be vital (FIG. 9C).
# [4] = tested on: normal tissue such as heart, kidney, liver and lung; conditions: mouse, in vivo
# [5] = melanoma tumor 1 hour after intravenous injection, HE staining
# integrin αvβ3, sequence (P06756 31-889 limits assumed): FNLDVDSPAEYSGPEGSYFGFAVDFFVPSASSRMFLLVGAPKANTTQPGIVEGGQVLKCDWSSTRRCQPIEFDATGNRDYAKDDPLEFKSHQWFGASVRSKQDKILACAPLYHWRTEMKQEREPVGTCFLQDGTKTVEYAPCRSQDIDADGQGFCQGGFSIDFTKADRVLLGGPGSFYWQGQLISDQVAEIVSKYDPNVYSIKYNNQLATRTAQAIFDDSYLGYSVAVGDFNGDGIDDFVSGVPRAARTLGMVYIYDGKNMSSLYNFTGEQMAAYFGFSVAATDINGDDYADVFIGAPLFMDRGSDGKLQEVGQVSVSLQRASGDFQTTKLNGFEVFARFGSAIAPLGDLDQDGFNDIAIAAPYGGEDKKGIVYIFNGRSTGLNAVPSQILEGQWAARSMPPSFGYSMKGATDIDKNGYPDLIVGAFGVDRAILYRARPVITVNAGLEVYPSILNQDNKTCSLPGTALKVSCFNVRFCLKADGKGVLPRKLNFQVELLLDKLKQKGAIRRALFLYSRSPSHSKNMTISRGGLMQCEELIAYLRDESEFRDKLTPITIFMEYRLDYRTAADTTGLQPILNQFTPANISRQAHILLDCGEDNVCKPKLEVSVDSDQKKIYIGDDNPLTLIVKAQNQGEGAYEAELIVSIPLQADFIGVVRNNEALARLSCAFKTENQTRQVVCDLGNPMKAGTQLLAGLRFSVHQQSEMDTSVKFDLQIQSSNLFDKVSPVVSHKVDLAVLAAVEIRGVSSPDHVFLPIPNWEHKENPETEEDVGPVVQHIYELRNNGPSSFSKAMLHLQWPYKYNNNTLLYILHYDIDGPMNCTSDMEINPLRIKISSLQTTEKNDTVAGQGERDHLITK
# integrin αvβ3, sequence (P06756 891-1048 limits assumed): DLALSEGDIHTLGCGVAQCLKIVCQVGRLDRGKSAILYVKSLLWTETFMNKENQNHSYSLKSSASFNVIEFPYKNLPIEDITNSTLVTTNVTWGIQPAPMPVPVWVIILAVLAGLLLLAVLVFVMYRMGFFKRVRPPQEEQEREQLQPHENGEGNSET
# integrin αvβ3, sequence (P05106 27-788): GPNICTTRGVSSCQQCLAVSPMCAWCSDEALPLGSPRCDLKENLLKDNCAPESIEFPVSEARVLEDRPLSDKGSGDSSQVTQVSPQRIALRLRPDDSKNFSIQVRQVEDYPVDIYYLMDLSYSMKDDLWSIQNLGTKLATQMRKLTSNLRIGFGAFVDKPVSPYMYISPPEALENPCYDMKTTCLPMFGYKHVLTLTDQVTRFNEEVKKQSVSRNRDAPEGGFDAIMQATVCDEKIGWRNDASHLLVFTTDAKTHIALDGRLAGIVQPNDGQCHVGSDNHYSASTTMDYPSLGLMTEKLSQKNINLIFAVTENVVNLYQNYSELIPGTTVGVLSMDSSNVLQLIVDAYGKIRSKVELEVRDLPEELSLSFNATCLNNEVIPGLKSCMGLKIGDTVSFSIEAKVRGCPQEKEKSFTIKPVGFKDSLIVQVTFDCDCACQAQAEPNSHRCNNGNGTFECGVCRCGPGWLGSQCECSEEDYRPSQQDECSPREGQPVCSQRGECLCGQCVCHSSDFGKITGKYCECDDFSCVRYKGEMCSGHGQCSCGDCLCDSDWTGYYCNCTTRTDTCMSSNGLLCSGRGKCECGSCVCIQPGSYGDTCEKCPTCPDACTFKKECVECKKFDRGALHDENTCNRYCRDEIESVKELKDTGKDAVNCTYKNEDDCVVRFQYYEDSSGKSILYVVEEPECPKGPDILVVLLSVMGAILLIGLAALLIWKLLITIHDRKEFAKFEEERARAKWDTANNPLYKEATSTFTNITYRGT
molecule,measurement,setting,value
"tTF-RGD: fusion polypeptide tTF-GRGDSP (SEQ ID NO:3), peptide coupled to C-terminus of tTF (protein, Amino acid sequence of tTF-GRGDSP) SGTTNTVAAYNLTWKSTNFKTILEWEPKPVNQVYTVQISTKSGDWKSKCFYTTDTECDLTDEIVKDVKQTYLARVFSYPAGNVESTGSAGEPLYENSPEFTPYLETNLGQPTIQSFEQVGTKVNVTVEDERTLVRRNNTFLSLRDVFGKDLIYTLYYWKSSSSGKKTAKTNTNEFLIDVDKGENYCFSVQAVIPSRTVNRKSTDSPVECMGQEKGEFRGRGDSD",binding to the αvβ3 integrin in ELISA,integrin αvβ3,demonstrated
same,"measured fluorescence intensity, factor higher than for tTF",human endothelial cells,8
same,Mean tumor volume Day 0,"[1]; M21 tumors, Day 0 (baseline)",585 ± 85 mm^3
same,Mean tumor volume Day 7,"[1]; M21 tumors, Day 7",514 ± 81 mm^3
same,effect on tumor growth,"[1]; M21 xenograft, intravenous therapy, compared with NaCl or tTF",Inhibition and partial remission
same,Mean tumor volume Day 0,"[2]; HT1080 tumors, Day 0 (baseline)",1725 ± 197 mm^3
same,Mean tumor volume Day 7,"[2]; HT1080 tumors, Day 7",1241 ± 122 mm^3
same,effect on tumor growth,"[2]; HT1080 xenograft, intravenous therapy, compared with control groups",significant inhibition of growth; also recorded: partial regression of tumor volume
same,Mean tumor volume Day 0,"[3]; CCL185 tumors, Day 0 (baseline)",45 ± 5 mm^3
same,Mean tumor volume Day 7,"[3]; CCL185 tumors, Day 7",130 ± 19 mm^3
same,effect on tumor growth,"[3]; CCL185 xenograft, intravenous therapy, compared with NaCl or tTF",Inhibition
same,H-E staining of tumors: thrombosis and necrosis,"tumor blood vessels; FIG. 36, treated mice",Severe thrombosis and necrosis of tumor cells
same,macroscopic appearance of tumor at the end of treatment,"tumor blood vessels; M21 tumor, day 7",clear signs of necrosis
same,histology of tumor blood vessels (thrombus formation),tumor blood vessels; [5],blood vessels appear to be thrombolytically occluded
same,histology: tumor necrosis in supply region of occluded vessel,tumor blood vessels; [5],Extensive tumor necroses
same,"H-E staining of heart, lung, liver and kidney (thrombosis, necrosis)",[4],did not show any visible thrombosis or necrosis
